US20220348651A1, “ENTPD2 ANTIBODIES, COMBINATION THERAPIES, AND METHODS OF USING THE ANTIBODIES AND COMBINATION THERAPIES” (Novartis AG, priority 2019, published 2022)

T1: ENTPD2 (Homo sapiens, UniProt Q9Y5L3)
T1 sequence (Q9Y5L3 1-495): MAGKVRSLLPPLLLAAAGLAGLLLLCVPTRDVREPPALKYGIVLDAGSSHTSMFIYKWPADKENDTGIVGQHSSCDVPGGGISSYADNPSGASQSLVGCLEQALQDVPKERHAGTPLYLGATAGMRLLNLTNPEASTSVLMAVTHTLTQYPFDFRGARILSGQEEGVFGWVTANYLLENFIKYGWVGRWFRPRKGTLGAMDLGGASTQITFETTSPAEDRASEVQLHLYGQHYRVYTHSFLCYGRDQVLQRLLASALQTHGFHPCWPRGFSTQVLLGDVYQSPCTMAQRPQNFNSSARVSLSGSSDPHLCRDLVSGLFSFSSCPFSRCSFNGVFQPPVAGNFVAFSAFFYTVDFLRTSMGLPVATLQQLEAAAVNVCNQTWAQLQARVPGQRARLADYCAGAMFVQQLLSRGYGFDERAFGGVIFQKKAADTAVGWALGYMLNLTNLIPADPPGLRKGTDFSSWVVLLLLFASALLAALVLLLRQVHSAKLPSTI

T2: recombinant human ENTPD2 (residues 29-462) (Homo sapiens, UniProt Q9Y5L3)
T2 construct: residues 29-462 of human or cyno ENTPD2 were cloned into expression vector; GP67 signal peptide (N); made in house; host or cells: High Five (Trichoplusia ni) insect cells, baculovirus
T2 sequence (Q9Y5L3 29-462): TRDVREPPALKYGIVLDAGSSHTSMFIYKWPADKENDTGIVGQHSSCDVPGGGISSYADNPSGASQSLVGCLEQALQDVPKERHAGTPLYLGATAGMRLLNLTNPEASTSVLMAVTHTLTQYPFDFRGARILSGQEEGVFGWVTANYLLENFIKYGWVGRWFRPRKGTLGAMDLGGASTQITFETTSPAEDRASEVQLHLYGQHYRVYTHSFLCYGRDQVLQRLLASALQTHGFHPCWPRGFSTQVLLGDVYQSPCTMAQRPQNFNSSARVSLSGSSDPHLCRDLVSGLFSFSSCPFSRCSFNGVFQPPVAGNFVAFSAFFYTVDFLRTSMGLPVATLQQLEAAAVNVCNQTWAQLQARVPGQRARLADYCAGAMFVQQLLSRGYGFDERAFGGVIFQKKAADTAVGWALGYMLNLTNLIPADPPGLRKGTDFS

T3: mouse ENTPD2 (Mus musculus, UniProt O55026)
T3 construct: expressed in transfected cells; host or cells: NIH/3T3 (retroviral transduction)
T3 sequence (O55026 1-495): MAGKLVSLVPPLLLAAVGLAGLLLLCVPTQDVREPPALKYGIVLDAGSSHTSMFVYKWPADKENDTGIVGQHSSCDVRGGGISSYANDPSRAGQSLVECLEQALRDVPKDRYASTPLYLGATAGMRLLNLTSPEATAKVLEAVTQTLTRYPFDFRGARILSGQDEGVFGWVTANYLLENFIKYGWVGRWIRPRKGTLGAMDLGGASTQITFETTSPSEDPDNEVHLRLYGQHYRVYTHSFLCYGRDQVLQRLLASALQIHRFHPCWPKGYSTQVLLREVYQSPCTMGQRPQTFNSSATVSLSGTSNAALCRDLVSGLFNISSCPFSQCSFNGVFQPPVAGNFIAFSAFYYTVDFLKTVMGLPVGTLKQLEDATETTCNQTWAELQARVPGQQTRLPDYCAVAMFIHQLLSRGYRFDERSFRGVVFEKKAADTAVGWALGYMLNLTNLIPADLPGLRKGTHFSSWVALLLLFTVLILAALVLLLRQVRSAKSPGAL


What was measured:
ENTPD2 = biological target: T1, ENTPD2; test: Hybridoma mAb screen: cell-based assay for inhibition of ATP hydrolysis by ENTPD2; conditions: hybridoma-derived mAbs
From the text: Hybridoma-derived mAbs were screened in a cell-based assay for inhibition of ATP hydrolysis by ENTPD2.

[1] = biological target: T2, recombinant human ENTPD2 (residues 29-462); test: Biochemical human ENTPD2 functional assay (Transcreener ADP2 TR-FRET); conditions: FIG. 15
From the text: (§1) Biochemical and cell-based functional assays were developed in-house to understand functional impact of anti-ENTPD2 Abs against purified extracellular domain of ENTPD2 (residues 29-462), as well as against the fully intact protein in the context of the native cell-based conformation. ENTPD2 hydrolyzes ATP to ADP, which can subsequently be detected using the HTRF Transcreener ADP2 TR-FRET Red Assay (BellBrook Labs, Madison, Wis.) where ENTPD2-produced ADP would compete with the ADP Tracer for binding to the anti-ADP-Tb antibody. The resulting signal is inversely proportional to the concentration of ADP in the sample.
To evaluate activity of anti-ENTPD2 Abs in the ENTPD2 biochemical assay, anti-ENTPD2 Abs and recombinant ENTPD2 (residues 29-462) were diluted in reaction buffer (50 mM HEPES, pH 7.1, 10 mM MgCl2, 0.01% BSA) to the desired concentration. 4 μL per well of the ENTPD2 solution and 2 μL per well of the Anti-ENTPD2 Ab solution were transferred into a ProxiPlate (PerkinElmer, Waltham, Mass.) and incubated for 30 min at room temperature. Reaction was then initiated via addition of 2 μl of ATP (final assay concentration of 1 μM), and the sample was incubated for 25 min at room temperature. […]
(§2) HTRF signal (Emission at 620 nm and 665 nm) was assessed in both assays using the Envision plate reader in HTRF mode (Perkin Elmer, Waltham, Mass.). HTRF ratio was determined using the following formula: HTRF ratio=R=Emission at 665 nm/Emission at 620 nm×10,000. Subsequently % Residual Activity and % Inhibition were determined as follows:
(§3) Where R0% is the HTRF ratio of the negative control (0% enzyme activity), and R100% is the HTRF ratio of the positive control (100% enzyme activity). Data were analyzed in Microsoft Excel and graphed using GraphPad's Prism 7.0 software and IC50 values were obtained using non-linear regression, log (agonist) vs. response-variable slope (four parameters) analysis.

mouse ENTPD2 = biological target: T3, mouse ENTPD2; test: Mouse ENTPD2 NIH/3T3 cell-based functional assay; conditions: mouse ENTPD2 NIH/3T3 cells, 100 nM
From the text: as §1
To establish cell-based functional assays, human/cyno/mouse ENTPD2-engineered NIH/3T3 cells or RKO (ATCC, Manassa Va.) colorectal cancer cells with endogenous ENTPD2 expression were plated overnight at 150, 200 and 250 cells per well for NIH/3T3 mouse, cyno and human ENTPD2 lines, respectively, or 1000 cells per well for RKO in 384-well tissue culture plate, in 30 μl per well (Perkin Elmer, Waltham, Mass.). The following day cells were pre-incubated with Anti-ENTPD2 Abs in dose response for 60 min at 37° C., 5% CO2 (10 μl of 5× antibody dose per well), and subsequently stimulated with a final concentration of 10 μM ATP (Teknova, Hollister, Calif.) for 20 minutes at room temperature (10 μl of 5× (50 μM) ATP per well). Reactions were quenched with 40 mM EDTA/40 mM EGTA, 25 μl per well, and 15 μl of quenched media was transferred to low volume Proxiplates (PerkinElmer, Waltham, Mass.) for ADP detection. ADP production was detected with the Transcreener ADP2 TR-FRET Red Assay (BellBrook Labs, Madison, Wis.) with a final concentration of 4 nM ADP2 antibody and 13.4 nM of ADP Tracer in wells (4× solution was prepared and 5 μL of “Detection Reagent Mix” was added to the quenched conditioned media). Plates were incubated with detection reagents for 1 hour at room temperature prior to reading plates in HTRF mode.
as §2, §3
Anti-ENTPD2 mAb13 was identified as a mouse ENTPD2 selective Ab (FACS EC50 3-4 nM) with no binding to human or cyno ENTPD2.

Molecule	inhibition of the catalytic activity of recombinant human ENTPD2 [1]	% Inhibition at 100 nM (±Std Err) (mouse ENTPD2) [%]	other results
mAb16: hybridoma-derived lead inhibitory anti-human ENTPD2 mAb; VH/VL DNA SEQ ID NO: 226/230 (antibody, V domains shown) VH: DIQLQESGPGLVKPSQSLSLTCSVTGYSITSGYYWNWIRQFPGNKLEWMGYISYDGDNNYNPSLKNRISITRDTSKNQFFLKLSSVTTEDTATYYCAGGYYRYGLSYYYVMDYWGQGTSVTVSS VL: DTVLTQSPASLAVSLGQRATISCKASQSVDYDGNSYMNWYQQKPGQPPKLLIYAASNLESGIPARFSGSGSGTDFTLNIHPVEEEDAATYYCQQSNEDPPTFGGGTKLEIK	–	–	inhibition of ATP hydrolysis by ENTPD2 (ENTPD2): lead inhibitory mAbs
mAb19: anti-human ENTPD2 antibody of Table 1; VH SEQ ID NO: 250, VL SEQ ID NO: 257 (antibody, V domains shown) VH: EVQLQQFGAELVKPGTSVKISCKASGYTFTDYNMDWVKQSHGKSLEWIGDINPNYDITTYNQRFKGKATLTVDKSSSTAYMELRSLTSEDTAVYYCARRGFFPYYGNSYYYFDVWGAGTTVTVSS VL: QIVLTQSPTIMSASLGEEITLTCSASSSVSYMHWYQQKSGTSPKLLIYSTSNLASGVPSRFSGSGSGTFYSLTISSVEAEDAADYYCHQWSNYPWTFGGGTKLEIK	potently inhibit	–	–
mAb21: anti-human ENTPD2 antibody of Table 1; VH SEQ ID NO: 281, VL SEQ ID NO: 287 (antibody, V domains shown) VH: EVQLQQSGPELVKPGASVKISCKTSGYTFTEYTMHWVKQSHGKSLEWIGGINPNNGITTYNQKFKGKATLTVDKSSSTAYMDLRSLTSEGSAVYYCARRGFPIYYYGTSLYYFDYWGQGTTLTVSS VL: QIVLTQSPAIMSASLGEEITLTCSASSSVSYMHWYQQRSGTSPKLLIYTTSNLASGVPSRFSGSGSGTFYSLTISSVEAEDAADYYCHQWSSYPWTFGGGTKLEIK	potently inhibit	–	–
mAb14: anti-mouse ENTPD2 antibody, T30 variant of mAb13; HC SEQ ID NO: 211, LC SEQ ID NO: 204 (antibody) heavy: QVQLVQSGAELKQPGQSVKISCKASGYTFWHYGMNWVKQAPGQGLKWMGWINTDTGNPTYADDFKGRFVFSLDTSVSTAYLQISNLKNEDTATYYCVRYGTLYSGYGFFFDSWGQGTLVTVSSAKTTAPSVYPLAPVCGDTTGSSVTLGCLVKGYFPEPVTLTWNSGSLSSGVHTFPAVLQSDLYTLSSSVTVTSSTWPSQSITCNVAHPASSTKVDKKIEPRGPTIKPCPPCKCPAPNLLGGPSVFIFPPKIKDVLMISLSPIVTCVVVDVSEDDPDVQISWFVNNVEVHTAQTQTHREDYNSTLRVVSALPIQHQDWMSGKEFKCKVNNKDLPAPIERTISKPKGSVRAPQVYVLPPPEEEMTKKQVTLTCMVTDFMPEDIYVEWTNNGKTELNYKNTEPVLDSDGSYFMYSKLRVEKKNWVERNSYSCSVVHEGLHNHHTTKSFSRTPGK light: DIMMTQSPSSLSVSAGEKATITCKSSQSLFNSNTNKNYLNWYLQKPGQSPKLLFYYASTRHTGVPDRFIGSGSGTDFTLTITSVQDEDLADYYCQQWYSYPWTFGPGTKLEIKRADAAPTVSIFPPSSEQLTSGGASVVCFLNNFYPKDINVKWKIDGSERQNGVLNSWTDQDSKDSTYSMSSTLTLTKDEYERHNSYTCEATHKTSTSPIVKSFNRNEC	–	79 ± 2.2	–
mAb15: anti-mouse ENTPD2 antibody, T30 variant of mAb13; HC SEQ ID NO: 218, LC SEQ ID NO: 204 (antibody) heavy: QVQLVQSGAELKQPGQSVKISCKASGYTFHHYGMNWVKQAPGQGLKWMGWINTDTGNPTYADDFKGRFVFSLDTSVSTAYLQISNLKNEDTATYYCVRYGTLYSGYGFFFDSWGQGTLVTVSSAKTTAPSVYPLAPVCGDTTGSSVTLGCLVKGYFPEPVTLTWNSGSLSSGVHTFPAVLQSDLYTLSSSVTVTSSTWPSQSITCNVAHPASSTKVDKKIEPRGPTIKPCPPCKCPAPNLLGGPSVFIFPPKIKDVLMISLSPIVTCVVVDVSEDDPDVQISWFVNNVEVHTAQTQTHREDYNSTLRVVSALPIQHQDWMSGKEFKCKVNNKDLPAPIERTISKPKGSVRAPQVYVLPPPEEEMTKKQVTLTCMVTDFMPEDIYVEWTNNGKTELNYKNTEPVLDSDGSYFMYSKLRVEKKNWVERNSYSCSVVHEGLHNHHTTKSFSRTPGK light: DIMMTQSPSSLSVSAGEKATITCKSSQSLFNSNTNKNYLNWYLQKPGQSPKLLFYYASTRHTGVPDRFIGSGSGTDFTLTITSVQDEDLADYYCQQWYSYPWTFGPGTKLEIKRADAAPTVSIFPPSSEQLTSGGASVVCFLNNFYPKDINVKWKIDGSERQNGVLNSWTDQDSKDSTYSMSSTLTLTKDEYERHNSYTCEATHKTSTSPIVKSFNRNEC	–	76 ± 3.4	–
